Source: article PMC11912406 (Proceedings of the National Academy of Sciences of the …, 2025)
Like-named read-outs stand apart in the source and are kept apart here.

T1: cell-surface, GPI-anchored murine JUNO on HEK293F cells (murine, UniProt Q9EQF4 20-222)
T1 sequence: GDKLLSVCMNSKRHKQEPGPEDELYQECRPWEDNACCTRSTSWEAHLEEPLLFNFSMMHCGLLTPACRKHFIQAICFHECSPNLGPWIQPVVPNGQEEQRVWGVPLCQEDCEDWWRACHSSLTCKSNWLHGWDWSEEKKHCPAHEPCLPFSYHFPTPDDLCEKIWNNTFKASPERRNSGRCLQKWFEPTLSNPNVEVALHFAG


Experiments:
[1] = biological target: cell-surface, GPI-anchored hamster JUNO on HEK293F cells (hamster); assay: flow cytometry on cells
[2] = biological target: cell-surface, GPI-anchored murine JUNO on HEK293F cells (murine) (UniProt Q9EQF4); assay: flow cytometry on cells
[3] = biological target: recombinant murine IZUMO1-human Fc fusion protein (murine) (UniProt Q9D9J7); assay: BLI
[4] = biological target: IZUMO1-Fc prebound to OBF13^HAC (scFv) (murine) (UniProt Q9D9J7); assay: BLI
[5] = biological target: IZUMO1-Fc prebound to OBF13 (IgM) (murine) (UniProt Q9D9J7); assay: BLI
[6] = biological target: cell-surface, GPI-anchored hamster JUNO on HEK293F cells (hamster); assay: flow cytometry on cells; remark: listed apart in the source
[7] = biological target: T1, cell-surface, GPI-anchored murine JUNO …; assay: flow cytometry on cells

Kd [3] [µM] | fold decrease in kon against IZUMO1 alone [4] [fold] | fold decrease in kon against IZUMO1 alone [5] [fold] | Molecule | further results
– | – | – | IZUMO1-Fc prebound to OBF13 (IgM) (from UniProt Q9D9J7 22-319) (complex) | EC50 [1]: 0.0014 µM; EC50 [2]: 0.551 µM
0.659 | 2 | 2 | hamster JUNO ectodomain (domain or fragment) | –
11 | 3 | 3 | murine JUNO ectodomain (domain or fragment) | Kd [4]: 33.8 µM; Kd [5]: 30.1 µM
– | – | – | recombinant murine IZUMO1-human Fc fusion protein (Fc fusion) CIKCDQFVTDALKTFENTYLNDHLPHDIHKNVMRMVNHEVSSFGVVTSAEDSYLGAVDENTLEQATWSFLKDLKRITDSDLKGELFIKELLWMLRHQKDIFNNLARQFQKEVLCPNKCGVMSQTLIWCLKCEKQLHICRKSLDCGERHIEVHRSEDLVLDCLLSWHRASKGLTDYSFYRVWENSSETLIAKGKEPYLTKSMVGPEDAGNYRCVLDTINQGHATVIRYDVTVLPPKHSEENQPPNIITQEEHETPVHVTPQTPPGQEPESELYPELHPELYPELIPTVAQNPEKKMKTR | EC50 [6]: 0.000198 µM; EC50 [7]: 0.0107 µM
